{
  "source": "patent US20260139240A1",
  "about": "(GRIFFITH UNIVERSITY, published 2026)",
  "binders": {"B1": {"name": "Bovine α1-acid glycoprotein (AGP) (other)", "chain": "QSPECANLMTVAPITNATMDLLSGKWFYIGSAFRNPEYNKSARAIQAAFFYLEPRHAEDKLITREYQTIEDKCVYNCSFIKIYRQNGTLSKVESDREHFVDLLLSKHFRTFMLAASWNGTKNVGVSFYADKPEVTQEQKKEFLDVIKCIGIQESEIIYTDEKKDACGPLEKQHEEERKKETEAS", "notes": "mature; also called Bovine α1-AGP; bovine AGP"}},
  "molecular_target": "T1, Wild type SubB (subtilase cytotoxin B subunit) (Escherichia coli, UniProt Q6EZC3 24-141)",
  "T1 construct": "also called SubB WT",
  "test": "SPR (Biacore […]), […], single cycle kinetics",
  "data": [
    {"binder": "B1", "values": [
      {"measurement": "Kd", "value": 156, "unit": "nM"}
    ]}
  ]
}
